Measured values as given in paper PMC4341462, “Human RNASET2 derivatives as potential anti-angiogenic agents: actin binding sequence identification and characterization” (Oncoscience, 2014).

Assays:
[1] = target: T1, Actin from rabbit muscle (Sigma A2522) (rabbit, UniProt P68135 1-377); test: SPR; BIAcore 3000; actin amine-coupled to a CM5 chip; hRNASET2, trT2-50, trT2-50m or peptides injected at 5 concentrations, 10 μl/min, 25°C, HBS (10 mM Hepes, 150 mM NaCl, 3 mM EDTA, 0.005% Polysorbate 20); global fit with BIAevaluation 3.2; details: both partners purified
[2] = target: T1, Actin from rabbit muscle (Sigma A2522); test: ELISA; solid-phase actin binding assay: 500 ng actin coated per well (MaxiSorp, carbonate-bicarbonate pH 9.5), blocked with 3% BSA; trT2-50, trT2-50m or peptides added in 1:2 dilutions from 500 ng/well in 100 μl TBS, 1 h 37°C; detected with rabbit anti-trT2-50 and goat anti-rabbit IgG-HRP, OD 655 nm; affinity by double reciprocal plot; details: both partners purified

Kd [1]: 0.5 µM
koff [1]: 0.00969 s⁻¹
kon [1]: 19400 M⁻¹ s⁻¹
Kd [2]: 0.0345 µM
B1: trT2-50m (truncated hRNASET2 identical to trT2-50 but missing E120-V141) (domain or fragment)
chain: EGCNRSWPFNLEEIKDLLPEMRAYWPDVIHSFPNRSRFWKHEWEKHGTCAAQVDALNSQKKYFGRSLELYRADFKDALARVYGVIPKIQCLPPSQDEEVQTIGQIELCLTKQDQQLQNCTEPGEQPSPKQEVWLANGAAESRGLRVCEDGPVFYPPPKKTKH
